From the DeepSol protein solubility set

Assay: soluble on expression in E. coli; label from the status in PepcDB or PDB records
With “MRIALFTDTYIPQVNGVARTMKRLVDHLEKRQVEYALYMPETIEKLDRFESNIHTFASLPFFLYPECRIALPNVFKLRQQLTSFQPDLLHIATPFNVGLSGLQHGKKYGIPMVGSYHTHFDHYLHYYKLQFMSAWLWKYVKWFHQPFERTFVPSVETMRHLQKHGFQRLALWTRGVDCERFHPKQRHRSYAINLLPKDKAVLLYVGRLAPEKDLATLVAIMSLLPRELNEKIQWMIVGDGPSLPEMKKQCPSNVTFTGYLKGEELAAAYASADLFVFPSATETFGNVVLEAFASGTPAIVADRGGVTEIVEHGKSGMICKAGDAHTFIQAIEHLLMNRSKRAEMGYEARQYALTQSWERIFDDLLEQYEQVIFHHKKRHLALEHHHHHH” the “soluble on expression in E. coli” value was “not soluble”.
In the case of “MKRVLVVDDEESITSSLSAILEEEGYHPDTAKTLREAEKKIKELFFPVIVLDVWMPDGDGVNFIDFIKENSPDSVVIVITGHGSVDTAVKAIKKGAYEFLEKPFSVERFLLTIKHAFEEYSKKAPPQEEIEFVGEHPKILEIKRLIPKIAKSKAPVLITGESGTGKEIVARLIHRYSGRKGAFVDLNCASIPQELAESELFGHEKGAFTGALTRKKGKLELADQGTLFLDEVGELDQRVQAKLLRVLETGSFTRLGGNQKIEVDIRVISATNKNLEEEIKKGNFREDLYYRLSVFQIYLPPLRERGKDVILLAEYFLKKFAKEYKKNCFELSEETKEYLMKQEWKGNVRELKNLIERAVILCEGEVIKPEDLGLKEKSWRDLSYLLKIKELKEAKKEFEKIFIEEKLREYDYDLKRTAEEIGIDLSNLYRKIKSLNIRVKSS”, the “soluble on expression in E. coli” value is reported as “soluble”.
In the case of “MSDEESFVILGSSPCSSLMPDSSLRSDVCGNAQEAKETVASTSTQPPTVNCIPVSITASQQQHKSLDSGSSQQQSLATSFIMGEIQSDVLKNSVYSQFPSLCSLQGSAEEVVKLQNMMTEYLALKSQPNHAELPQPDSTMAPGSRRPRTPVQGACERVPSANRDPSRGKPRAEEGPRDENRADLEHHHHHH”, the “soluble on expression in E. coli” value is reported as “not soluble”.
With “EQLAGIDNLRDLDPTGALATKLEAIAPTVSTYDSYAGRLISEYGLLLPVEPSSRLISQTELFQIAHSIVSAHTGALNTSNSPNTVTSTLISLVSEMDNHMVSPTDIEEESAAFLAMIEDVEATSKRAPSKEVYKWRDTQVLRNELLPLVQQLKTHLADNHLMTFGEQMSLAARLAAENPQVGASQRNRYQIIMLDEYQDTGHAQRVLLKSLFAGTAVTAVGDPMQSIYGWRGATAANLERFLTDFGSNGSPATKKELTVSFRNPPEVLDLANRVSRELLGVPEDPRRPVQPLEPGPAALNGIVRLGFFPSMDEERSYVADHLAQAYEQHDGDHPFTAAVLVRKRKHSAAIALELQQRGVPVE” the “soluble on expression in E. coli” value was “not soluble”.
In the case of “MGSDKIHHHHHHMTDDSLFLIDVDKILRTKAPKQYKYIPKFVVSYLKKIVHQDEINVFLNESKDKLGVDFLEACMEFLDAKVEVKGIENLPKEGLYTFVSNHPLGGQDGVALGYVLGRHYDGKVKYLVNDLLMNLRGLAPLCVPINKTGKQAKDFPKMVEAGFQSDDQMIMFPAGLCSRRQNGVIRDLEWKKTFIIKSIQAKRDVVPVHFGGRNSDFFYNLANVCKALGIKFNIAMLYLADEMFKNRHKTFTVTFGKPIPWQTFDKSKTPAQWAEYVKDIVYKL”, the “soluble on expression in E. coli” value is reported as “not soluble”.
In the case of “MEKKPWEEDISIEEFKKSLNKDKITNLIIKRRWNKGKSTYHLSFNGDFEVVTKKPSTKYVTHKQLDQKLKEFKQDLMVELHDTFATKADLRDSEARINQKLEALVQVVLLHGEQINKLTQIVEKQGEQIRELQVEQKAQRQEFNARMDRLENLLVESIESTNKRFDSIEGRLDSMDSRLDSMENRLDSIEGRLDSVEGRLDSVEGRLDSMENRLDSMETRLDKIDPPK”, the “soluble on expression in E. coli” value is reported as “soluble”.
For “RLSDTLMKQALSSVITQEKKRLKSQPKSIAQDIQPPNSMIKNALDEKDSHPFGDCFSDDEFLAIHLYTSCLYRPINHHLRYAPKNDVAPVVEAMNSGLAKLAQYPDYQVSGQLHRGIKQKMDDGEVMSRFKPGNTYRDDAFMSTSTRMDVTEEFTSDVTLHLQSSSAVNIGPFSKNPYEDEALIPPLTPFKVTGLHKQDDRWHVHLNEIAESSDE”, the “soluble on expression in E. coli” value was “not soluble”.
With “MKIKRLSLWHVPLTSHTAYYMAEGKTCDTVETAVLCIETDTGLTGWGEVCPIPHYLPAYARGVGPALSELAPVILSADPIGPEALMAKADAYLPDHRYAKSALDIALWDLTGQAAGLPLHALLGGQRQADLPLYHSITCIEPDEMARIAIEAQAQGMTQFQAKLGASGDWQTDVERLIKVREAVGSGPILYGDWNCGSTSLDATRTGRAVAHLDIMLEQPCATIEDCARVHSATGLPMKLDELVHDTASLLKAHQLGLMDVAALKLSKFGGLSATRRARDLCLHLGAKMCVEDTWGSDITTAAVLHLGAATDPARVLNVCDLSGYVSPRLAQDAPTRAQGRIAPPQAAGLGIAVDKTALGQPELILD” the “soluble on expression in E. coli” value was “soluble”.
In the case of “EGFKKLELNYMKERSYEEAKEYLDRALKNSVLKRVRGLDKVGIICSGGVDSSLIAKLASLYCEVILYAVGTENSEDLIYAERLAKDLNLKLRKKIISEEEYEEYVFKVAKAIDEVDLMKIGVGIPIYVASEMANEDGLKVVLSGQGADELFGGYARHERIYRERGEEELKKELLKDVYNLYKVNLERDDHCTMANGVELRVPFLDEEVVEIALSIPIEYKMSELSNRPYAESNISLKSEPINGLKNTNLNIKCVRSVRKKILRDVASQYLPDYIAYRPKKAAQYGSG”, the “soluble on expression in E. coli” value is reported as “soluble”.
In the case of “MGSDKIHHHHHHMTVLYKGSLKQNNDPFHVTLLSKEHIEQILFLQNVVVEGLEDKSRLQPLSQEEFQYILEGNGMMIGAFIKNELIAFRALLVPPIDDEHLGLDIGLPESELHRVIYQEISNVHPNCRGNGMQKILATVIMDELQKENGKYDYVCCTVAPFNIPSLKDKFSQGMEIAALKEKYGGSMRYVFVKELREDKEKDWTEIKSVPMNNAGGQQALLSEGYRGYEMEKVDEDFVVKFGR”, the “soluble on expression in E. coli” value is reported as “not soluble”.
In the case of “MNTNERIVPLLPLRGVLVYPTMVLHLDVGRDKSIQALEQAAMDENIIFLAMQKEMNIDDPKEDDIYSVGTVAKVKQMLKLPNGTLRVLVEGLHRAEVVEFIEEENVVQVSIKTVTEEVEADLEEKALMRTLLEHFEQYIKVSKKVSNETFATVADVEEPGRLVDLIASHLPIKTKQKQEILEIISVKERLHTLISIIQDEQELLSLEKKIGQKVKRSMERTQKEYFLREQMKAIQTELGDKEGKGGEVEELREKIEQSGMPEETMKAALKELDRYEKLPASSAESGVIRNYMDWLLALPWTDATEDMIDLAHSEEILNKDHYGLEKVKERVLEYLAVQKLTNSLKGPILCLVGPPGVGKTSLARSIATSLNRNFVRVSLGGVRDESEIRGHRRTYVGAMPGRIIQGMKKAKSVNPVFLLDEIDKMSNDFRGDPSAALLEVLDPEQNHNFSDHYIEEPYDLSKVMFVATANTLSSIPGPLLDRMEIISIAGYTELEKVHIAREHLLPKQLQEHGLRKGNLQVRDEALLEIIRYYTREAGVRTLERQIAKVCRKVAKIIVTAERKRIVVTEKNVVDLLGKHIFRYGQAEKTDQVGMATGLAYTAAGGDTLAIEVSVAPGKGKLILTGKLGDVMKESAQAAFSYIRSRAEELQIDPNFHEKNDIHIHVPEGAVPKDGPSAGITMATALISALTGIPVSKEVGMTGEITLRGRVLPIGGLKEKTLSAHRAGLTKIILPAENEKDLDDIPESVKENLTFVLASHLDEVLEHALVGVKQ”, the “soluble on expression in E. coli” value is reported as “not soluble”.
In the case of “MRVGLVHGFLSRRYLDFWRAYLEALGVEVVEAAPPPSDLPFCLPVQRLLAQVEALKEAGVDYLLLPDLQGGVESERGGGQCPWLLDLEAALLRYFPGLPPVLKVPAELSERVLGRAGEVGQLLVRNPMLVGRALDRTRRLLKPPPPLPTPQGSVGVVAQPYLLEEPAFRREVEAALRAHGLEAYFPDLPPERLREEADRLLPVDLPTDRELVGAIHYLGRLGRVKGLALVVSYACPPIPGLMRKAARRLGKPYRLLTLGEDWQEPLAALKAEMEKGNRGG”, the “soluble on expression in E. coli” value is reported as “soluble”.
With “SRDEIATTVFFVTRLVKKHDKLSKQQIEDFAEKLMTILFETYRSHWHSDCPSKGQAFRCIRINNNQNKDPILERACVESNVDFSHLGLPKEMTIWVDPFEVCCRYGEKNHPFTVASFKGRWEEWELYQQISYAVSRASSDVSSGTSCDEESCSKEPRVIPKVSNPKSIYQVKSVPVLFYTFFLSNSKKNALIMKTKKQKNMERTKL” the “soluble on expression in E. coli” value was “soluble”.
For “PTHIAIGIYFNPEIAPAPFISLIETNQCALAVRKYANEVGIPTVRDVKLARKLYKTHTKYSFVDFEHLDEVLRLIVWLEQVENTHLEHHHHHH”, the “soluble on expression in E. coli” value was “soluble”.
For “SDHGSNEIDRHLTPGASPAYIGINKEKKLLYTANYHTAVLSVFQYSNSGKLALVAQTTHKAESLGPRPEQVDGPHPHFFDETPAGNLVSCDLGNDTVDFYRLENNELKHLAQYKNEAGFGDRHIVFSKDGNYFYVVGELSSQINVVKFNENTWEFEDIATYKTIPEDFTEHNGAAALYITNDGKYIYNSNRGHNSITVFKVNDDHTLSLIQRISTFGDFPRDFNWDETQKYVVAANQNT”, the “soluble on expression in E. coli” value was “soluble”.
In the case of “MATFASRELTEEDDSHPGPSEKSEKDVLGIVRTGPKKLITGESSSLFKLKNELLKRKDRLNSEVHIKHTETHVSGKSNLLSTKKEEKERQARKDESRKLRIEKNERAVRREEDEARLMAAQQKLREKSELYDRMQEGNVVLANLDDTPVEFLVDFGTKKRRIEEERAWERERYREQEEAAPIGFGRAPIPEHYHHSEEQRVYGTSHMRLSLNENKRKEEIEKLLEMSKKTDMDKAKKKETEKHRDILRREKLNKLRAKHGLELLPEIVEPVAVPASQIDLNSIPLPGQKETPEERHARLMKSDREWDRGKGHYTTWIEKQRDERDDEFRPPDSYFR”, the “soluble on expression in E. coli” value is reported as “soluble”.
With “MGGLQQRCLWEVVTPRLSGAASLNGEQRADVCVIGAGFTGLSAALHLLEAGRSVCVLEAYEVGHGGSGRNVGLINAGTWIPPDEVVATLGAEQGEKLNAVLGRAPALVMETIERLGIDCQLRREGTLHMSHNASGVADLQRRHAQWTRRGAPLELLTGAACHEACGTRRISAALLDRRAGTLNPMAYSRGLATAVVQRGGQLYQRSPVLALERQGALWAVRSSAGAVLAEQVVIASNAYTEGEWTNLRRHFFPGYYYQVASAPLHGAAAERILPHGQGSWDTRTVLSSIRRDAQGRLLLGSLGNGANKPAWFLRQWADRIQSHYFPDLGQVNWEYSWTGCIAFTPDHLMRLFEPAEGLLAVTGYNGRGVTTGTVVGKAFADYLLSGERATLPLPFSDMKPVPAARLRSCAYEMGFSLYHAGQCLRVVLLEHHHHHH” the “soluble on expression in E. coli” value was “soluble”.
For “MSLNDLVMDVDLDFADGQSPMRTKKANEIIRDPISGSVVIPIDADKFPKESHNSPLVFKLGNGANENIMHVKSQKDVNLYPVPLSTSDFSENFINYICNLFDIYQDLGSHRIFSRPTIGVISSDYELEHTRVVNMALDSMIIELEILIASYDKLENANIARILELEQCLVILQCLRTFQFIDSINDRATFFDSLLKWTNRTDGEPKVEYIQSIFGQSDSSQVFFTEPFWKLVYQLLLRGLTEQAINTLEKSELAKYLKENCETTSTIFEDFIQLVKNYPLESEEHFREWKSFALELQQNFEDADTKIPVPLRKNLLDAISITAGNRDKILQHSSFWYESLTGFLLYYIPSEELIQEYVGLAVSKTPIDVTNPWETACLKILQNDIFPVLPILESLDNCTASFSAALCESKGLLIDRYTILEENSGSDDIEIDDIFSQRNGMASFLLNNFALELCSMKMKTLWPVAIGLISLSPYNTPSSKKSTIAELIPHYPFETNDDIEWALSVCAKWRLPDIAKEIYTTLGNQMLDNGNTVEAIANFSKAGQYELVKHYSWLLFENAAFQGKPMEDEVLSAIVDGDFNTSELIPDEVLNKVVTNAMRQSLSPYAVLSQFFSNVENERWSKALQQLMSLIEFEYLPKKYTVLLIVKYMYPLFLNDDQRMIDEETLVSLLAAIEKNWDCDDTDSVIAYEKLSEEIADLPKELKSMEKLIRKKLNGKLCLNLMIEGHHHHHH”, the “soluble on expression in E. coli” value was “soluble”.
